Data on 18 sequences can be found in the supplement of paper PMC9170038.

This data set concerns MS2 coat protein. Nature of the data set: apparent KD of MS2 coat protein; higher = weaker reporter binding. The conditions noted are these: Eterna round: R107. The gist of the method:
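Designed RNA switches were transcribed on-chip from Illumina sequencing clusters. They were then titrated with SNAP-549-labelled MS2 coat protein (twofold steps, 0.7 or 1.5 nM to 3 µM; 0.8–1.5 h to 10–20 min per step) in 100 mM Tris-HCl pH 7.5, 80 mM KCl, 4 mM MgCl2, without or with constant ligand. Apparent KD is the per-design median of normalised cluster binding-curve fits.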

Where [1] appears, read: input ligand: theophylline 20 uM.
[2] abbreviates: input ligand: theophylline 2 mM.
[3] abbreviates: input ligand: tryptophan 2.4 mM.

Consider “GGAUAGGACAGAAGGAGCGACAUGAGGAUCACCCAUGUCUACCACGUCGAAAGACGCUCAUGUCAGGUAGGUCGCUGUCCUAUCG [ArgXB 9 #StaticStem #MS2LeftOffAptamer]”, for which the “apparent KD of MS2 coat protein” value is, setting by setting: (input ligand: arginine 13.2 mM) 101 nM; (input ligand: none) 153 nM; under setting [1], 191 nM; under setting [2], 183 nM; under setting [3], 113 nM.
Take “GGAUAGGACAGAAGGAGCGACAUGAGGAUCACCCAUGUCUACUAGGACGAAAGUCCGUCAUGUCAGGUAGGUCGCUGUCCUAUCG [#29 Exclusion - Arginine B]”: the “apparent KD of MS2 coat protein” value is 68.8 nM (input ligand: arginine 13.2 mM); 88.7 nM (input ligand: none); 103 nM under setting [1]; 114 nM under setting [2]; 81.2 nM under setting [3].
Regarding “GGAUAGGACAGAAGGAGCGACAUGCGACGAAAGUCGAAAAGAUCACAUGAGGAUCACCCAUGUCAGGUAGGUCGCUGUCCUAUCG [ArgXB 10 #Zipper #MS2Left #StaticStem #Blueprint]”, the “apparent KD of MS2 coat protein” value is, setting by setting: (input ligand: arginine 13.2 mM) 119 nM; (input ligand: none) 127 nM; under setting [1], 115 nM; under setting [2], 154 nM; under setting [3], 89.9 nM.
Take “GGAUAGGACAGAAGGAGCGACGUGAGGCGAAAGCCAAUCCUUCAACAUGAGGAUCACCCAUGUCAGGUAGGUCGCUGUCCUAUCG [ArgBX 5]”: the “apparent KD of MS2 coat protein” value (input ligand: arginine 13.2 mM) was 19.5 nM; the “apparent KD of MS2 coat protein” value (input ligand: none) came to 20.9 nM; the “apparent KD of MS2 coat protein” value under setting [1] stood at 26.4 nM; the “apparent KD of MS2 coat protein” value under setting [2] was 22.3 nM; the “apparent KD of MS2 coat protein” value under setting [3] worked out at 22.5 nM.
On to “GGAUUACGAAAGUAGUCCAUCAAGUUCGAGCGAGGACCGGUACGGCCGCCACUCGAACAUGAGGAUCACCCAUGUAGCGAAAGCU [Tryptophan A 21]”, for which the “apparent KD of MS2 coat protein” value (input ligand: arginine 13.2 mM) turned out to be 116 nM, the “apparent KD of MS2 coat protein” value under setting [1] turned out to be 304 nM and the “apparent KD of MS2 coat protein” value under setting [2] was 371 nM.
Regarding “GGCACAUAGUCGGCCGCCACUAGAAUAAGAUGGAAUAACAUGAGGAUCACCCAUGUAAAAGGGACUAGGACCGGGACUAUGUGCC [Goat]”, the “apparent KD of MS2 coat protein” value turned out to be 12.9 nM (input ligand: arginine 13.2 mM), 15.7 nM under setting [1] and 14.3 nM under setting [2].
Take “GGCACCAGGAGAAGGAGCGUGAAGACAUGAGGAUCACCCAUGUAGAGGCCCGUACCGGGUUCGCAGGUAGGUCGCUCCUGGUGCC [#1 Same State - Arginine B Attempt #14 (HarryS)]”: the “apparent KD of MS2 coat protein” value (input ligand: arginine 13.2 mM) worked out at 19.2 nM; the “apparent KD of MS2 coat protein” value (input ligand: none) was determined as 23 nM; the “apparent KD of MS2 coat protein” value under setting [1] was 38.1 nM; the “apparent KD of MS2 coat protein” value under setting [2] was determined as 27.1 nM; the “apparent KD of MS2 coat protein” value under setting [3] is 24.2 nM.
On to “GGCCCUGCGAGCGCUCGCAGGGCCGCGGAUACCAGCGAGGUCCAUCGCCCUUGGCAGCCGAACAUGAGGAUCACCCAUGUCGGUA [#1 Same State - Theophylline A Attempt #13 (HarryS)]”, for which the “apparent KD of MS2 coat protein” value was found to be 7.87 nM (input ligand: arginine 13.2 mM); 9.84 nM (input ligand: none); 12.9 nM under setting [1]; 18.3 nM under setting [2]; 9.44 nM under setting [3].
For “GGCCGAAACGGCCAAGGUAUCAUGACCGAUACCAGCGAAGAAGAACGCCCUUGGCAGCGGACAUGAGGAUCACCCAUGUAAAGAA” the same measures were 24.5 nM, 16 nM, 38.3 nM, 124 nM and 13.9 nM.
Take “GGCUAGGCUAGCGAUACCAGCAACCAACAUGAUCUGAGGAUCACCCAGGUAGUUGGACGUUGCCCUUGGCAGCGCUAGCCUAGCC [SSThB NP+V+V2 #12 Diff Apt, Same Structure]”: the “apparent KD of MS2 coat protein” value was 15.4 nM (input ligand: arginine 13.2 mM); 14.3 nM (input ligand: none); 16 nM under setting [1]; 12.2 nM under setting [2]; 15.5 nM under setting [3].
Regarding “GGCUAGUGCAUCGAUACCAGCUACAUGAGGAUCACCCAUGUAGGAAGGGUGGCACUCGAUAGCCCUUGGCAGCGAACACCUCCGG [Cebebion]”, the “apparent KD of MS2 coat protein” value is, setting by setting: (input ligand: arginine 13.2 mM) 53 nM; (input ligand: none) 18.9 nM; under setting [1], 31.2 nM; under setting [2], 28.1 nM; under setting [3], 16.3 nM.
For the sequence “GGCUAUACUACGGCCGCCACUGAACAUGAGGAUCACCCAUGUAAUGUUCAGAUUUUUUUUUUUUACAGGACCGGGUAGAAUUGCC [Tryptophan B 3]”, the “apparent KD of MS2 coat protein” value is, setting by setting: (input ligand: arginine 13.2 mM) 82.6 nM; under setting [1], 220 nM; under setting [2], 299 nM.
For “GGGAUAUCCCGAAGGAGCGCGAGAUGCUGUGCUGCAUUCCUCACAUGAGGAUCACCCAUGUCGCAGGUAGGUCGCGGGAUAUCCC [#16 Exclusion - Arginine B]”, the “apparent KD of MS2 coat protein” value came to 151 nM (input ligand: arginine 13.2 mM); 450 nM (input ligand: none); 452 nM under setting [1]; 553 nM under setting [2]; 485 nM under setting [3].
With “GGGCCCGGGCGCGAGCCCGGGCCCAUUGAUACCAGUGAAGAAGAGCGCCCUUGGCAGCGAAUCCUAACAUGAGGAUCACCCAUGU [5.P]”, the “apparent KD of MS2 coat protein” value is, setting by setting: (input ligand: arginine 13.2 mM) 63.2 nM; (input ligand: none) 43.6 nM; under setting [1], 74.3 nM; under setting [2], 77.3 nM; under setting [3], 38.8 nM.
As to “GGGCCCGGGCGCGAGCCCGGGCCCAUUGAUACCAGUGAUAGAGAGCGCCCUUGGCAGCGAAUCCUAACAUGAGGAUCACCCAUGU [5.K]”, the “apparent KD of MS2 coat protein” value (input ligand: arginine 13.2 mM) was found to be 37.5 nM; the “apparent KD of MS2 coat protein” value (input ligand: none) was determined as 46.3 nM; the “apparent KD of MS2 coat protein” value under setting [1] amounted to 95.2 nM; the “apparent KD of MS2 coat protein” value under setting [2] was determined as 83.9 nM; the “apparent KD of MS2 coat protein” value under setting [3] is 56.6 nM.
As for “GGGCCCGGGCGCGAGCCCGGGCCCAUUGAUACCAGUGAUAUAUGACGCCCUUGGCAGCGAAUCCUAACAUGAGGAUCACCCAUGU [5.H]”, the “apparent KD of MS2 coat protein” value reads like this: (input ligand: arginine 13.2 mM) 22.8 nM; (input ligand: none) 54.7 nM; under setting [1], 58.9 nM; under setting [2], 81.6 nM; under setting [3], 37.1 nM.
On to “GGGCGCGUGGACCGGCGUGCUCCGCUCCGUCGAGGACCGGUACGGCCGCCACUCGACAUGAGGAUCACCCAUGUGUGAGCUCGCG [#1 Exclusion - Tryptophan A Attempt #16 (HarryS)]”, for which the “apparent KD of MS2 coat protein” value reads like this: (input ligand: arginine 13.2 mM) 22.5 nM; under setting [1], 63.6 nM; under setting [2], 80 nM.
In the case of “GGGUAAGAUCCGGAUACCAGCGAACAUGAGGAUCACCCAUGUGACCUAAGAUAGGCUAAACGCCCUUGGCAGCCGAGAUAGCGUU [Same State Theophylline B GF 6]”, the “apparent KD of MS2 coat protein” value is, setting by setting: (input ligand: arginine 13.2 mM) 27.2 nM; (input ligand: none) 41.3 nM; under setting [1], 34.2 nM; under setting [2], 30.7 nM; under setting [3], 39.5 nM.
